Experimental data: PMC10638403

Target: full-length E. coli ClpX (E. coli) (UniProt P0A6H1)

rate of ClpP degradation of FITC-casein (50 µM, 30 °C) supported by full-length ∆NPS ClpX against wild-type ClpX (against ~10-fold for ∆NPS ClpX^∆N over ClpX^∆N): 2 fold
Substance: FITC-casein
